Source: patent publication US20140087995A1 (published 2014)
Like-named read-outs stand apart in the source and are kept apart here. Numbered stars: 1 amine (or outer) side, 2 acyl side, 3 side chain; on linkers, the order of the positions; unused ones are H or OH. Bridge positions count the residues as written; N and C are the ends. Side chains are listed from the residue outwards. Ends that are not written are not given here. * marks the point of attachment. C20 diacid = O=C(O)CCCCCCCCCCCCCCCCCCC(=O)*; γGlu = O=C(O)[C@H](CCC(=O)[*:2])N[*:1]; AEEA = NCCOCCOCC(=O)O

How the values were obtained:
rat calcitonin receptor [1] = target: T1, rat calcitonin receptor (rat, UniProt P32214 25-516); test: ratio IC50 rat calcitonin receptor / IC50 rat amylin receptor (reference)
T1 construct: whole, on cells; Membranes of transiently transfected BHK tk'ts 13 cells (Assay VIII); also called rCTR
T1 sequence (looked up): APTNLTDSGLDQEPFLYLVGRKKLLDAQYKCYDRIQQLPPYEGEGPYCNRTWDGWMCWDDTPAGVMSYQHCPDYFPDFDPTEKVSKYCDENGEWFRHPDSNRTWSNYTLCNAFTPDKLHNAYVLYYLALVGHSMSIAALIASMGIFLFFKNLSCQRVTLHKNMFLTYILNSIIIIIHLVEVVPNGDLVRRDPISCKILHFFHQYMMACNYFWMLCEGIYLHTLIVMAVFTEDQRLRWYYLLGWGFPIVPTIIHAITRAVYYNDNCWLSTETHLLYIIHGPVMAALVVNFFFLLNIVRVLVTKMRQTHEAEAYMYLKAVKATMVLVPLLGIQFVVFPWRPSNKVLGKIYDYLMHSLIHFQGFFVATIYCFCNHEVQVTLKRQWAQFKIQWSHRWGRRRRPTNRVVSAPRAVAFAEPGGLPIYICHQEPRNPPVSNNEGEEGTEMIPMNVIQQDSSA

[2] = target: T2, rat amylin receptor (rat calcitonin receptor + rat RAMP 3) (rat, UniProt P32214 25-516; Q9JJ73 23-147); test: SPA competition with 125I-rat amylin, membranes of BHK cells with rat calcitonin receptor + rat RAMP3 (Assay VI)
T2 construct: whole, on cells; Membranes of transiently transfected BHK tk'ts 13 cells (Assay VI); also called rAmylin-R; rat amylin 3(a) receptor
T2 sequence (looked up) 1: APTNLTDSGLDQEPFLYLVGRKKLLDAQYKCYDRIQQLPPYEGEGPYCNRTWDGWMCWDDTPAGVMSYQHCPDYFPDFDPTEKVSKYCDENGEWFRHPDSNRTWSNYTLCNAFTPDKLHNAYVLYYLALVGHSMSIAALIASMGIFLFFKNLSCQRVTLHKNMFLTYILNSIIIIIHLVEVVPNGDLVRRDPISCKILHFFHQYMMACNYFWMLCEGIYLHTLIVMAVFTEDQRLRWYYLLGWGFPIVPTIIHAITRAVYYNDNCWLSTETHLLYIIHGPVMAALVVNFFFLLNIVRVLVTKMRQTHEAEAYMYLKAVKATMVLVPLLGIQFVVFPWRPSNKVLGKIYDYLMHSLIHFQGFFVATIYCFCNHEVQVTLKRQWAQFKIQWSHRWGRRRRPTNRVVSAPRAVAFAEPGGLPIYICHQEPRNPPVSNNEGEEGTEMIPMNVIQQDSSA
T2 sequence (looked up) 2: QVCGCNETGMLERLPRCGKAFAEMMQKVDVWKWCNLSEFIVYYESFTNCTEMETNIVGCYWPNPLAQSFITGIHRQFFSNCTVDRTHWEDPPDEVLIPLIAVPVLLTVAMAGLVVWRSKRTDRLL

[3] = target: T3, human calcitonin receptor (human, UniProt P30988 25-474); test: ratio IC50 human calcitonin receptor / IC50 human amylin receptor (reference)
T3 construct: whole, on cells; Membranes of a stably transfected BHK cell line (Assay VII); also called hCTR; hCT
T3 sequence (looked up): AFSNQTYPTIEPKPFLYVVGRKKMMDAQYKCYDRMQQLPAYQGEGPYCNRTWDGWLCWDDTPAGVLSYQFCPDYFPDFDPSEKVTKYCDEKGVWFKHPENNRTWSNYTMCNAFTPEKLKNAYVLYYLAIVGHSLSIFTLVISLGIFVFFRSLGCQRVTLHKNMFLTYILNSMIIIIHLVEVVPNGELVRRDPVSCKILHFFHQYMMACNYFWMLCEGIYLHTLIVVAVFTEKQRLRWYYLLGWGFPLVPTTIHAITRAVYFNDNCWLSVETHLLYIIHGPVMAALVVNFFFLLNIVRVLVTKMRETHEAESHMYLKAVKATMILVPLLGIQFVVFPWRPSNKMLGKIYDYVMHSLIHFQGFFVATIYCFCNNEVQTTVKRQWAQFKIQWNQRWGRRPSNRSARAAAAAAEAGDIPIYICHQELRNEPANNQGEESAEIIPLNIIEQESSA
Outline: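 Competition binding by SPA uses membrane preparations (35 ng/μL final) in pH 7.4 Hepes buffer with 1 mM CaCl2 and 5 mM MgCl₂. Incubation lasts 120 min at 25° C, and IC₅₀ comes from one-site fitting.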

rat calcitonin receptor [4] = target: T1, rat calcitonin receptor; test: SPA competition with 125I-calcitonin, membranes of BHK cells with rat calcitonin receptor (Assay VIII)
[5] = target: T4, human calcitonin receptor (human, UniProt P30988 25-474); test: ratio of binding IC50s: human calcitonin receptor over human amylin receptor (reference)
T4 construct: whole, on cells; also called hCTR; hCT
T4 sequence (looked up): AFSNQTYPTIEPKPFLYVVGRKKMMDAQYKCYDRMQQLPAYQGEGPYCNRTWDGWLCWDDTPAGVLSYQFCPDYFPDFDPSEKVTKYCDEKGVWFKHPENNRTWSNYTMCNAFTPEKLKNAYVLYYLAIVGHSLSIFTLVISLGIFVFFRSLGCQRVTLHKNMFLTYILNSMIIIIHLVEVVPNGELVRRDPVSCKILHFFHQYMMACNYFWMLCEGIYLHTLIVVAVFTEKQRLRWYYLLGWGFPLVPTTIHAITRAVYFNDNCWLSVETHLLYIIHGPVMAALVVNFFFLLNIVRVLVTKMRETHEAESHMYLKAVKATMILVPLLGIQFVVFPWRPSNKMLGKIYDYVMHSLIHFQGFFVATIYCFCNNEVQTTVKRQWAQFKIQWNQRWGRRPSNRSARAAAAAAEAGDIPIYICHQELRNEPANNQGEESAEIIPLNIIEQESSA
Experimental: The resulting pellet was resuspended, homogenized and centrifuged (20.000 rpm, 15 min) in a buffer containing 20 mM Na-HEPES and 0.1 mM EDTA (pH 7.4, buffer 2). The resulting pellet was resuspended in buffer 2 and protein concentration was measured (BCA protein Assay, Pierce). The homogenate was kept cold during the whole procedure. The membranes were kept at −80° C. until use. The assay was performed in a 384 well Optiplate (PerkinElmer) in a total volume of 40 ul. Membranes were mixed with SPA beads. Final concentration of membranes 35 ng/μL final and SPA beads was 0.05 mg/well. Test-compounds were dissolved in DMSO and further diluted in assay buffer (50 mM Hepes, pH 7.4, 1 mM CaCl2, 5 mM MgCl₂, 0.1% OA and 0.02% Tween20). […] The final mixture was incubated with shaking at 400 rpm for 120 min at 25° C. prior to centrifugation (1500 rpm, 10 min). Samples were analyzed on TopCounter™ (Packard). The IC₅₀ was calculated using (one site binding competition analysis) GraphPad Prism5 as a measure of receptor affinity.
Membranes were prepared in the following way; the cells were rinsed with PBS and incubated with Versene for approximately 5 min before harvesting. The cells were flushed with PBS and the cell-suspension was centrifuged for 5 min at 1000 rpm. Cells were homogenized (Ultrathurrax) in a buffer containing 20 mM Na-HEPES and 10 mM EDTA (pH 7.4) and centrifuged at 20.000 rpm for 15 min. The resulting pellet was resuspended, homogenized and centrifuged (20.000 rpm, 15 min) in a buffer containing 20 mM Na-HEPES and 0.1 mM EDTA (pH 7.4, buffer 2). The resulting pellet was resuspended in buffer 2 and protein concentration was measured (BCA protein Assay, Pierce). The homogenate was kept cold during the whole procedure. The membranes were kept at −80° C. until use. Assay was performed in a 384 well Optiplate (PerkinElmer) in a total volume of 40 ul. Membranes were mixed with SPA beads.

[6] = target: T5, rat amylin receptor (rat calcitonin receptor + rat RAMP 3) (rat, UniProt P32214 25-516; Q9JJ73 23-147); test: SPA competition with 125I-rat amylin, membranes of BHK cells with rat calcitonin receptor + rat RAMP3 (Assay VI)
T5 construct: whole, on cells; also called rAmylin-R; rat amylin 3(a) receptor
T5 sequence (looked up) 1: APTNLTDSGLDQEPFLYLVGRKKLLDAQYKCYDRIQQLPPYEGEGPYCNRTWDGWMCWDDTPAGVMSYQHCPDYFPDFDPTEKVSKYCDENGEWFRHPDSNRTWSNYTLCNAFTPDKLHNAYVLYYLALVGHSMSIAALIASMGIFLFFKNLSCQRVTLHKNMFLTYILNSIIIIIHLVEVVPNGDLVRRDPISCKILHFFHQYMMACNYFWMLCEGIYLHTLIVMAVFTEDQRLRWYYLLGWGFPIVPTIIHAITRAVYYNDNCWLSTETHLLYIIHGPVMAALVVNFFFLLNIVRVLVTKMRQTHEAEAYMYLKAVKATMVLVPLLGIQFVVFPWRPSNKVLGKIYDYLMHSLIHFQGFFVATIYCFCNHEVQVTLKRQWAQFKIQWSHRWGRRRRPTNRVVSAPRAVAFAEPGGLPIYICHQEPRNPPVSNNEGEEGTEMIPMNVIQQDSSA
T5 sequence (looked up) 2: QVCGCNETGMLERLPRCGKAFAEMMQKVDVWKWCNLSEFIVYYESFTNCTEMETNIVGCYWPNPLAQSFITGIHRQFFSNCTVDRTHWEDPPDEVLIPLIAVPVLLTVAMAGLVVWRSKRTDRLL

rat calcitonin receptor [7] = target: T6, rat calcitonin receptor (rat, UniProt P32214 25-516); test: SPA competition with 125I-calcitonin, membranes of BHK cells with rat calcitonin receptor (Assay VIII)
T6 construct: whole, on cells; also called rCTR; rat calcitonin (a) receptor
T6 sequence (looked up): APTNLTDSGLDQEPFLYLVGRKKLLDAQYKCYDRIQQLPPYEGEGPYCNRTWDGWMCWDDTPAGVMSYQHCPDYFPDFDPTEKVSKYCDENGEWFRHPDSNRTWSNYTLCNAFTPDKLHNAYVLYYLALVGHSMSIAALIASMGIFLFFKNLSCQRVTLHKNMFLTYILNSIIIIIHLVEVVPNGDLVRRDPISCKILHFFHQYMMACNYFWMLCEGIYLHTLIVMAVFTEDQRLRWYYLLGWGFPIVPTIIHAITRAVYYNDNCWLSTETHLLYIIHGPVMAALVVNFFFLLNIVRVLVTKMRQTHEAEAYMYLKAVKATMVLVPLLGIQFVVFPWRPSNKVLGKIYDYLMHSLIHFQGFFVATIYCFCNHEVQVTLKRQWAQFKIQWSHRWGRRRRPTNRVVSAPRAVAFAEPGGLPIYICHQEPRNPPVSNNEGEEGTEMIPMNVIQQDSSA

rat calcitonin receptor [8] = target: T6, rat calcitonin receptor; test: ratio of binding IC50s: rat calcitonin receptor over rat amylin receptor (reference)

B1: N{-1}-[(4S)-4-carboxy-4-(19-carboxynonadecanoylamino)butanoyl]-Gly[Arg1,His14,Arg17,Pro21,Pro27]-h-amylin (peptide)
peptide: {C20 diacid-γGlu}-GRCNTATCATQRLAHFLRHSSPNFGAIPSSTNVGSNTY-NH2
modifications: disulfide 3-8
SMILES: CC[C@H](C)[C@H](NC(=O)[C@H](C)NC(=O)CNC(=O)[C@H](Cc1ccccc1)NC(=O)[C@H](CC(N)=O)NC(=O)[C@@H]1CCCN1C(=O)[C@H](CO)NC(=O)[C@H](CO)NC(=O)[C@H](Cc1c[nH]cn1)NC(=O)[C@H](CCCNC(=N)N)NC(=O)[C@H](CC(C)C)NC(=O)[C@H](Cc1ccccc1)NC(=O)[C@H](Cc1c[nH]cn1)NC(=O)[C@H](C)NC(=O)[C@H](CC(C)C)NC(=O)[C@H](CCCNC(=N)N)NC(=O)[C@H](CCC(N)=O)NC(=O)[C@@H](NC(=O)[C@H](C)NC(=O)[C@@H]1CSSC[C@H](NC(=O)[C@H](CCCNC(=N)N)NC(=O)CNC(=O)CC[C@H](NC(=O)CCCCCCCCCCCCCCCCCCC(=O)O)C(=O)O)C(=O)N[C@@H](CC(N)=O)C(=O)N[C@@H]([C@@H](C)O)C(=O)N[C@@H](C)C(=O)N[C@@H]([C@@H](C)O)C(=O)N1)[C@@H](C)O)C(=O)N1CCC[C@H]1C(=O)N[C@@H](CO)C(=O)N[C@@H](CO)C(=O)N[C@H](C(=O)N[C@@H](CC(N)=O)C(=O)N[C@H](C(=O)NCC(=O)N[C@@H](CO)C(=O)N[C@@H](CC(N)=O)C(=O)N[C@H](C(=O)N[C@@H](Cc1ccc(O)cc1)C(N)=O)[C@@H](C)O)C(C)C)[C@@H](C)O
notes: also called compound 99
Ratio rCT/rAmylin binding (rat calcitonin receptor [1]): 79.8 | IC50 [2]: 2.7 nM | Ratio hCT/hAmylin binding [3]: 100 | IC50 (rat calcitonin receptor [4]): 216 nM

B2: N^ε1-[2-[2-[2-[[(4S)-4-carboxy-4-(19-carboxynonadecanoylamino)butanoyl]amino]ethoxy]ethoxy]acetyl]-[His14,Arg17,Pro21,Pro27]-h-amylin (peptide)
peptide: K([AEEA-γGlu-C20 diacid])CNTATCATQRLAHFLRHSSPNFGAIPSSTNVGSNTY-NH2
modifications: disulfide 2-7; N-terminus assumed
SMILES: CC[C@H](C)[C@H](NC(=O)[C@H](C)NC(=O)CNC(=O)[C@H](Cc1ccccc1)NC(=O)[C@H](CC(N)=O)NC(=O)[C@@H]1CCCN1C(=O)[C@H](CO)NC(=O)[C@H](CO)NC(=O)[C@H](Cc1c[nH]cn1)NC(=O)[C@H](CCCNC(=N)N)NC(=O)[C@H](CC(C)C)NC(=O)[C@H](Cc1ccccc1)NC(=O)[C@H](Cc1c[nH]cn1)NC(=O)[C@H](C)NC(=O)[C@H](CC(C)C)NC(=O)[C@H](CCCNC(=N)N)NC(=O)[C@H](CCC(N)=O)NC(=O)[C@@H](NC(=O)[C@H](C)NC(=O)[C@@H]1CSSC[C@H](NC(=O)[C@@H](N)CCCCNC(=O)COCCOCCNC(=O)CC[C@H](NC(=O)CCCCCCCCCCCCCCCCCCC(=O)O)C(=O)O)C(=O)N[C@@H](CC(N)=O)C(=O)N[C@@H]([C@@H](C)O)C(=O)N[C@@H](C)C(=O)N[C@@H]([C@@H](C)O)C(=O)N1)[C@@H](C)O)C(=O)N1CCC[C@H]1C(=O)N[C@@H](CO)C(=O)N[C@@H](CO)C(=O)N[C@H](C(=O)N[C@@H](CC(N)=O)C(=O)N[C@H](C(=O)NCC(=O)N[C@@H](CO)C(=O)N[C@@H](CC(N)=O)C(=O)N[C@H](C(=O)N[C@@H](Cc1ccc(O)cc1)C(N)=O)[C@@H](C)O)C(C)C)[C@@H](C)O
notes: synthetic analogue of human amylin; also called compound 69
Ratio hCT/hAmylin binding [5]: 65.3 | IC50 [6]: 0.45 nM | IC50 (rat calcitonin receptor [7]): 46.8 nM | Ratio rCT/rAmylin binding (rat calcitonin receptor [8]): 104
